Primed or numbered codes have the meaning given here. Ends that are not written are not given here. FITC′ = not defined here
T1: W peptide WAKLDEESILKQK (XAKLDEESILKQK, X = W)
T1 construct: Immobilized on the biolayer interferometry sensor
T1 peptide: WAKLDEESILKQK

T2: IA peptide IAKLDEESILKQK (XAKLDEESILKQK, X = I)
T2 construct: Immobilized on the biolayer interferometry sensor
T2 peptide: IAKLDEESILKQK

T3: LA peptide LAKLDEESILKQK (XAKLDEESILKQK, X = L)
T3 construct: Immobilized on the biolayer interferometry sensor
T3 peptide: LAKLDEESILKQK

T4: F peptide FAKLDEESILKQK (XAKLDEESILKQK, X = F)
T4 construct: Immobilized on the biolayer interferometry sensor
T4 peptide: FAKLDEESILKQK

T5: VA peptide VAKLDEESILKQK (XAKLDEESILKQK, X = V)
T5 construct: Immobilized on the biolayer interferometry sensor
T5 peptide: VAKLDEESILKQK

T6: Y peptide YAKLDEESILKQK (XAKLDEESILKQK, X = Y)
T6 construct: Immobilized on the biolayer interferometry sensor
T6 peptide: YAKLDEESILKQK

T7: RA peptide (N-terminal arginine, penultimate alanine; rest of sequence not given)
T7 peptide: RAKLDEESILKQK-{FITC′}

B1: PS431 (other)
chain: MIISSVKSSPSTETLSRTELQLGGVWRVVVLNDPVNLMSYVMMIFKKIFGFNETVARRHMLEVHEKGRSVVWSGLREKAEAYVFTLQQWHLTAVLESDETH
B2: PS435 (other)
chain: MTLSVALGPDTQESTQTGTAVSTDTLTAPDIPWNLVIWNDPVNLMSYVSYVFQSYFGYSETKANKLMMEVHKKGRSIVAHGSKEQVEQHAVAMHGYGLWATVEKATGGNSGGGKSGGPGKGKGKRG
B3: PS381 (other)
chain: MVAFSKKWKKDELDKSTGKQKMLILHNDSVNSFDYVIKTLCEVCDHDTIQAEQCAFLTHFKGQCEIAVGEVADLVPLKNKLLNKNLIVSIH
B4: PS379 (other)
chain: MSTQEEVLEEVKTTTQKENEIVLYNDDYNTFDHVIETLIYACEHTPVQAEQCAILVHYKGKCTVKTGSFDELKPRCSKLLEEGLSAEIV
B5: PS373 (other)
chain: MNRIKQEAVRTENLLICSESIRRTPGTMSNEESMFDEVVAVAVAEPETQHDERRGTKPKRQPPYHVILWDDTDHSFDYVIMMMKRLFRMPIEKGFQVAKEVDSSGRAICMTTTLELAELKRDQIHAFGKDELLPRCKGSMSATIEPAEG
B6: PS406 (other)
chain: MPDATTTPRTKTLTRTARPPLHKVILVNDDFTPREFVVRLLKAEFRTTGDEAQRIMITAHMKGSCVVAVFTREIAESKATRATETARAEGFPLLFTTEPEE
B7: PS429 (other)
chain: MSVQEEVLEEVKTKERVNKQNQIIVFNDDVNTFDHVIDMLIATCDHDPIQAEQCTMLIHYKGKCEVKTGDYDDLKPRCSKLLDAGISAEIQ
B8: PS368 (other)
chain: MASAPSTTLDKSTQVVKKTYPNYKVIVLNDDLNTFDHVANCLIKYIPDMTTDRAWELTNQVHYQGQAIVWTGPQEQAELYHQQLRREGLTMAPLEAA
B9: PS377 (other)
chain: MADISKSRPEIGGPKGPQFGDSDRGGGVAVITKPVTKKKFKRKSQTEYEPYWHVLLHHDNVHTFEYATGAIVKVVRTVSRKTAHRITMQAHVSGVATVTTTWKAQAEEYCKGLQMHGLTSSIAPDSSFTH
B10: PS391 (other)
chain: MGQTVEKPRVEGPGTGLGGSWRVIVRNDDHNTFDHVARTLARFIPGVSLERGHEIAKVIHTTGRAVVYTGHKEAAEHYWQQLKGAGLTMAPLEQG
B11: PS369 (other)
chain: MTSTLRARPARDTDLQHRPYPHYRIIVLDDDVNTFQHVVNCLVTFLPGMTRDQAWAMAQQVDGEGSAVVWTGPQEQAELYHVQLGNHGLTMAPLEPV
B12: PS693 (Bis-PS528, Linker 1) (designed binder)
chain: MHSKFNHAGRICGAKFRVGEPIYRCKECSFDDTCVLCVNCFNPKDHVGHHVYTSICTEFNNGICDCGDKEAWNHELNCKGAEDGGGSGGGSGGGSGMHSKFNHAGRICGAKFRVGEPIYRCKECSFDDTCVLCVNCFNPKDHVGHHVYTSICTEFNNGICDCGDKEAWNHELNCKGAEDGGSHHHHHHHHHHGGGSGGGSGGGSGLNDFFEAQKIEWHEGGGSGGGSGGGSGLNDFFEAQKIEWHE
notes: Single polypeptide; the entry includes the C-terminal His/bis-biotinylation tag
B13: PS691 (Bis-PS621, Linker 2) (designed binder)
chain: MHSKFSHAGRICGAKFKVGEPIYRCKECSFDDTCVLCVNCFNPKDHTGHHVYTTICTEFNNGICDCGDKEAWNHTLFCKAEEGGSAGSAAGSGEFMHSKFSHAGRICGAKFKVGEPIYRCKECSFDDTCVLCVNCFNPKDHTGHHVYTTICTEFNNGICDCGDKEAWNHTLFCKAEEGGGSHHHHHHHHHHGGGSGGGSGGGSGLNDFFEAQKIEWHEGGGSGGGSGGGSGLNDFFEAQKIEWHE
notes: as for B12
B14: PS690 (Bis-PS621, Linker 1) (designed binder)
chain: MHSKFSHAGRICGAKFKVGEPIYRCKECSFDDTCVLCVNCFNPKDHTGHHVYTTICTEFNNGICDCGDKEAWNHTLFCKAEEGGGGSGGGSGGGSGMHSKFSHAGRICGAKFKVGEPIYRCKECSFDDTCVLCVNCFNPKDHTGHHVYTTICTEFNNGICDCGDKEAWNHTLFCKAEEGGGSHHHHHHHHHHGGGSGGGSGGGSGLNDFFEAQKIEWHEGGGSGGGSGGGSGLNDFFEAQKIEWHE
notes: as for B12
B15: PS692 (Bis-PS621, Linker 3) (designed binder)
chain: MHSKFSHAGRICGAKFKVGEPIYRCKECSFDDTCVLCVNCFNPKDHTGHHVYTTICTEFNNGICDCGDKEAWNHTLFCKAEEGGSAGSAAGSGEFGSAGSAAGSGEFGSAGSAAGSGEFMHSKFSHAGRICGAKFKVGEPIYRCKECSFDDTCVLCVNCFNPKDHTGHHVYTTICTEFNNGICDCGDKEAWNHTLFCKAEEGGGSHHHHHHHHHHGGGSGGGSGGGSGLNDFFEAQKIEWHEGGGSGGGSGGGSGLNDFFEAQKIEWHE
notes: as for B12
B16: PS561 (other)
chain: MAELQTAVVEPTTRPEQDEKQSQSRPKRQPRYNVILWDDPDHSYDYVIMMLKELFGHPRQRGHQMAEEVDTTGRVICLTTTMEHAELKRDQIHAYGSDEGITRCKGSMSASIEPVPE
B17: PS564 (other)
chain: MFEEVVSVAVAEPKTKKQSRTKPKRQPPYHVILWDDTDHTFDYVIKMMGELFRMPREKGYQLAKEVDTSGRAICMTTTLELAELKRDQIHAFGRDDASAHCKGSMSATIEPAEG
B18: PS574 (other)
chain: MANATPTPDVVPEEETETRTRRQPPYAVVLHNDDTNTMDFVVTVLRKVFGYTVEKCVELMLEAHTQGKVAVWIGALEVAELKADQIKSFGPDPHVTKNGHPLGVTVEPAA
B19: PS562 (other)
chain: MSDQQSMVAEPEVVVHTQDEKKLEKQNKRKKQPRYNVVLWDDTDHSYDYVVLMMKQLFHHPIETGFQIAKQVDKGGKAICLTTTMEHAELKRDQIHAFGKDDLIARCTGSMSATIEPVPE
B20: PS567 (other)
chain: MADYEDAGEDALEDDFDHGTVTVAPQKPEPKKQSENKRQANRQPRYNVLLWDSEDHTFEYVEKMLRELFGHIKKQCQIIAEQVDQEGRAVVLTTTLEHAELKRDQIHAYGKDQLEGSKGSMWSTIEAVD

Molecular target: T1, W peptide WAKLDEESILKQK (XAKLDEESILKQK, …)
Assay: BLI heatmap

binding result	Binder
no binding	B1
binds	B2
no binding	B3
no binding	B4
no binding	B5
binds	B6
no binding	B7
binds	B8
binds	B9

Molecular target: T2, IA peptide IAKLDEESILKQK …
Assay: BLI heatmap

binding result	Binder
no binding	B1
no binding	B2
no binding	B3
no binding	B4
no binding	B5
no binding	B6
no binding	B7
no binding	B8
no binding	B9

Molecular target: T3, LA peptide LAKLDEESILKQK …
Assay: BLI heatmap

binding result	Binder
binds	B10
no binding	B1
binds	B2
no binding	B3
no binding	B4
no binding	B5
no binding	B6
no binding	B7
binds	B11
binds	B8
no binding	B9

Molecular target: T4, F peptide FAKLDEESILKQK (XAKLDEESILKQK, …)
Assay: BLI heatmap

binding result	Binder
binds	B10
binds	B2
no binding	B3
no binding	B4
no binding	B5
binds	B6
binds	B11
binds	B8

Molecular target: T5, VA peptide VAKLDEESILKQK …
Assay: BLI heatmap

binding result	Binder
no binding	B1
no binding	B2
no binding	B3
no binding	B4
no binding	B5
no binding	B6
no binding	B7
no binding	B8
no binding	B9

Molecular target: T6, Y peptide YAKLDEESILKQK (XAKLDEESILKQK, …)
Assay: BLI heatmap

binding result	Binder
binds	B10
no binding	B1
binds	B2
no binding	B3
no binding	B4
no binding	B5
binds	B6
no binding	B7
binds	B11
binds	B8
no binding	B9

Molecular target: T7, RA peptide (N-terminal arginine, …)
Assay: fluorescence polarization

Kd [nM]	Binder
263	B12
369	B13
354	B14
478	B15

Molecular target: T2, IA peptide IAKLDEESILKQK …
Assay: BLI heatmap
Remark: another data set of the same source

binding result	Binder
no binding	B16
no binding	B17
no binding	B18
no binding	B19
no binding	B20

Molecular target: T3, LA peptide LAKLDEESILKQK …
Assay: BLI heatmap
Remark: another data set of the same source

binding result	Binder
no binding	B16
no binding	B17
no binding	B18
no binding	B19
no binding	B20

Molecular target: T4, F peptide FAKLDEESILKQK (XAKLDEESILKQK, …)
Assay: BLI heatmap
Remark: another data set of the same source

binding result	Binder
no binding	B16
no binding	B17
binds	B18
no binding	B19
no binding	B20

Molecular target: T5, VA peptide VAKLDEESILKQK …
Assay: BLI heatmap
Remark: another data set of the same source

binding result	Binder
no binding	B16
no binding	B17
no binding	B18
no binding	B19
no binding	B20
